Values of other authors in paper PMC7640956.

Target: Spike RBD (Severe acute respiratory syndrome coronavirus 2) (UniProt P0DTC2)

ACE2-derived 23-mer peptide (from UniProt Q9BYF1)
Kd: 47 nM
